Test results reported in PMC12102759 (2025).

B1: AMOTL2 peptide 64-79 (Angiomotin-like protein 2), 16-mer library wild type / TNKS ANK (TNKS 12 ANK repeats, residues 174-649) (parent complex)
chain 1: QVLQQATRQEPQGQEH
chain 2: TGVPAVSGALRELLEACRNGDVSRVKRLVDAANVNAKDMAGRKSSPLHFAAGFGRKDVVEHLLQMGANVHARDDGGLIPLHNACSFGHAEVVSLLLCQGADPNARDNWNYTPLHEAAIKGKIDVCIVLLQHGADPNIRNTDGKSALDLADPSAKAVLTGEYKKDELLEAARSGNEEKLMALLTPLNVNCHASDGRKSTPLHLAAGYNRVRIVQLLLQHGADVHAKDKGGLVPLHNACSYGHYEVTELLLKHGACVNAMDLWQFTPLHEAASKNRVEVCSLLLSHGADPTLVNCHGKSAVDMAPTPELRERLTYEFKGHSLLQAAREADLAKVKKTLALEIINFKQPQSHETALHCAVASLHPKRKQVTELLLRKGANVNEKNKDFMTPLHVAAERAHNDVMEVLHKHGAKMNALDTLGQTALHRAALAGHLQTCRLLLSYGSDPSIISLQGFTAAQMGNEAVQQILSESTPIRTSD
B2: RNF115 peptide 69-84 (E3 ubiquitin-protein ligase RNF115), 16-mer library wild type / MDM2 SWIB (MDM2 SWIB/MDM2 domain, residues 17-125) (parent complex)
chain 1: THFAELWGHLDHTMFF
chain 2: SQIPASEQETLVRPKPLLLKLLKSVGAQKDTYTMKEVLFYLGQYIMTKRLYDEKQQHIVYCSNDLLGDLFGVPSFSVKEHRKIYTMIYRNLVVVNQQESSDSGTSVSEN

Variants of: B1
Test: proteomic peptide phage display deep mutational scan (ProP-PD DMS): M13 P8 16-mer library selected against immobilised GST-tagged bait for four days (rounds), NGS of the eluted pools per day and pseudo-replica; bait immobilised on MaxiSorp plates (10 µg), library pre-cleared on GST, 2 h binding at 4 °C, five washes; one round per day, days 1-4; value from days 2 and 3

Row | Variant | screen value
1 | chain 1 QVLQHATRQEPQGQEH [chain 1 Q5H] | 0.0129 average fractional NGS count over selection days 2 and 3 (reads of this peptide / all reads for the bait, averaged over …
2 | chain 1 QVLQIATRQEPQGQEH [chain 1 Q5I] | 0.00183 average fractional NGS count over selection days 2 and 3 (reads of this peptide / all reads for the bait, averaged over …
3 | chain 1 QVLQQATRQEPPGQEH [chain 1 Q12P] | 0.000174 average fractional NGS count over selection days 2 and 3 (reads of this peptide / all reads for the bait, averaged over …
4 | chain 1 QVLQQATRQEPAGQEH [chain 1 Q12A] | 0.00119 average fractional NGS count over selection days 2 and 3 (reads of this peptide / all reads for the bait, averaged over …
5 | chain 1 QVLQQATRQEPQGQER [chain 1 H16R] | 0.00349 average fractional NGS count over selection days 2 and 3 (reads of this peptide / all reads for the bait, averaged over …
6 | chain 1 QVLQQATRQEPQGQEN [chain 1 H16N] | 0.00139 average fractional NGS count over selection days 2 and 3 (reads of this peptide / all reads for the bait, averaged over …
7 | chain 1 QVLQQATRQEPQGQEQ [chain 1 H16Q] | 0.000195 average fractional NGS count over selection days 2 and 3 (reads of this peptide / all reads for the bait, averaged over …
8 | chain 1 QVLQQATRQEPQVQEH [chain 1 G13V] | 0.00137 average fractional NGS count over selection days 2 and 3 (reads of this peptide / all reads for the bait, averaged over …
9 | chain 1 QVLQQATRSEPQGQEH [chain 1 Q9S] | 0.000874 average fractional NGS count over selection days 2 and 3 (reads of this peptide / all reads for the bait, averaged over …
10 | chain 1 QVLQQATRDEPQGQEH [chain 1 Q9D] | 0.00088 average fractional NGS count over selection days 2 and 3 (reads of this peptide / all reads for the bait, averaged over …
11 | chain 1 QVNQQATRQEPQGQEH [chain 1 L3N] | 0.00173 average fractional NGS count over selection days 2 and 3 (reads of this peptide / all reads for the bait, averaged over …
12 | chain 1 QVLQQASRQEPQGQEH [chain 1 T7S] | 0.000189 average fractional NGS count over selection days 2 and 3 (reads of this peptide / all reads for the bait, averaged over …
13 | chain 1 QVLQQAFRQEPQGQEH [chain 1 T7F] | 0.000844 average fractional NGS count over selection days 2 and 3 (reads of this peptide / all reads for the bait, averaged over …
14 | chain 1 QVLQQTTRQEPQGQEH [chain 1 A6T] | 0.000175 average fractional NGS count over selection days 2 and 3 (reads of this peptide / all reads for the bait, averaged over …
15 | chain 1 QVLQQFTRQEPQGQEH [chain 1 A6F] | 0.00286 average fractional NGS count over selection days 2 and 3 (reads of this peptide / all reads for the bait, averaged over …
16 | chain 1 QVLQQDTRQEPQGQEH [chain 1 A6D] | 0.000263 average fractional NGS count over selection days 2 and 3 (reads of this peptide / all reads for the bait, averaged over …
17 | chain 1 QVLQQLTRQEPQGQEH [chain 1 A6L] | 0.000992 average fractional NGS count over selection days 2 and 3 (reads of this peptide / all reads for the bait, averaged over …
18 | chain 1 QVLQQQTRQEPQGQEH [chain 1 A6Q] | 0.00606 average fractional NGS count over selection days 2 and 3 (reads of this peptide / all reads for the bait, averaged over …
19 | chain 1 QVLQQMTRQEPQGQEH [chain 1 A6M] | 0.000267 average fractional NGS count over selection days 2 and 3 (reads of this peptide / all reads for the bait, averaged over …
20 | chain 1 QVLQQATRQSPQGQEH [chain 1 E10S] | 0.000835 average fractional NGS count over selection days 2 and 3 (reads of this peptide / all reads for the bait, averaged over …
21 | chain 1 QVLQQATRQPPQGQEH [chain 1 E10P] | 0.00208 average fractional NGS count over selection days 2 and 3 (reads of this peptide / all reads for the bait, averaged over …
22 | chain 1 QVLQQATRQTPQGQEH [chain 1 E10T] | 0.00297 average fractional NGS count over selection days 2 and 3 (reads of this peptide / all reads for the bait, averaged over …
23 | chain 1 QVLEQATRQEPQGQEH [chain 1 Q4E] | 0.000127 average fractional NGS count over selection days 2 and 3 (reads of this peptide / all reads for the bait, averaged over …
24 | chain 1 QVLGQATRQEPQGQEH [chain 1 Q4G] | 0.000278 average fractional NGS count over selection days 2 and 3 (reads of this peptide / all reads for the bait, averaged over …
25 | chain 1 QDLQQATRQEPQGQEH [chain 1 V2D] | 0.000341 average fractional NGS count over selection days 2 and 3 (reads of this peptide / all reads for the bait, averaged over …
26 | chain 1 QMLQQATRQEPQGQEH [chain 1 V2M] | 0.000248 average fractional NGS count over selection days 2 and 3 (reads of this peptide / all reads for the bait, averaged over …
27 | chain 1 QVLQQATRQEPQGMEH [chain 1 Q14M] | 0.000951 average fractional NGS count over selection days 2 and 3 (reads of this peptide / all reads for the bait, averaged over …
28 | chain 1 QVLQQATRQEPQGAEH [chain 1 Q14A] | 0.0303 average fractional NGS count over selection days 2 and 3 (reads of this peptide / all reads for the bait, averaged over …
29 | chain 1 QVLQQATRQEPQGQIH [chain 1 E15I] | 9.73e-05 average fractional NGS count over selection days 2 and 3 (reads of this peptide / all reads for the bait, averaged over …
30 | chain 1 QVLQQATRQEPQGQHH [chain 1 E15H] | 0.000392 average fractional NGS count over selection days 2 and 3 (reads of this peptide / all reads for the bait, averaged over …

Variants of: B2
Test: as above

Row | Variant | screen value
31 | chain 1 E5W | 0.00018 average fractional NGS count over selection days 2 and 3 (reads of this peptide / all reads for the bait, averaged over …
32 | chain 1 E5S | 0.00184 average fractional NGS count over selection days 2 and 3 (reads of this peptide / all reads for the bait, averaged over …
33 | chain 1 E5A | 0.000481 average fractional NGS count over selection days 2 and 3 (reads of this peptide / all reads for the bait, averaged over …
34 | chain 1 E5Y | 0.000681 average fractional NGS count over selection days 2 and 3 (reads of this peptide / all reads for the bait, averaged over …
35 | chain 1 E5T | 0.000518 average fractional NGS count over selection days 2 and 3 (reads of this peptide / all reads for the bait, averaged over …
36 | chain 1 E5N | 0.000269 average fractional NGS count over selection days 2 and 3 (reads of this peptide / all reads for the bait, averaged over …
37 | chain 1 E5V | 0.000931 average fractional NGS count over selection days 2 and 3 (reads of this peptide / all reads for the bait, averaged over …
38 | chain 1 E5D | 0.00488 average fractional NGS count over selection days 2 and 3 (reads of this peptide / all reads for the bait, averaged over …
39 | chain 1 M14D | 0.00118 average fractional NGS count over selection days 2 and 3 (reads of this peptide / all reads for the bait, averaged over …
40 | chain 1 M14P | 0.00244 average fractional NGS count over selection days 2 and 3 (reads of this peptide / all reads for the bait, averaged over …
41 | chain 1 M14Q | 0.000925 average fractional NGS count over selection days 2 and 3 (reads of this peptide / all reads for the bait, averaged over …
42 | chain 1 M14Y | 0.00313 average fractional NGS count over selection days 2 and 3 (reads of this peptide / all reads for the bait, averaged over …
43 | chain 1 M14F | 0.000469 average fractional NGS count over selection days 2 and 3 (reads of this peptide / all reads for the bait, averaged over …
44 | chain 1 M14H | 0.0015 average fractional NGS count over selection days 2 and 3 (reads of this peptide / all reads for the bait, averaged over …
45 | chain 1 M14W | 0.00207 average fractional NGS count over selection days 2 and 3 (reads of this peptide / all reads for the bait, averaged over …
46 | chain 1 M14E | 0.000177 average fractional NGS count over selection days 2 and 3 (reads of this peptide / all reads for the bait, averaged over …
47 | chain 1 M14N | 0.00152 average fractional NGS count over selection days 2 and 3 (reads of this peptide / all reads for the bait, averaged over …
48 | chain 1 H12P | 0.000332 average fractional NGS count over selection days 2 and 3 (reads of this peptide / all reads for the bait, averaged over …
49 | chain 1 H12M | 0.00543 average fractional NGS count over selection days 2 and 3 (reads of this peptide / all reads for the bait, averaged over …
50 | chain 1 H12V | 0.000717 average fractional NGS count over selection days 2 and 3 (reads of this peptide / all reads for the bait, averaged over …

Row | Variant | screen value
51 | chain 1 H12D | 0.00032 average fractional NGS count over selection days 2 and 3 (reads of this peptide / all reads for the bait, averaged over …
52 | chain 1 H12S | 0.00289 average fractional NGS count over selection days 2 and 3 (reads of this peptide / all reads for the bait, averaged over …
53 | chain 1 H12N | 0.00222 average fractional NGS count over selection days 2 and 3 (reads of this peptide / all reads for the bait, averaged over …
54 | chain 1 H12L | 0.000337 average fractional NGS count over selection days 2 and 3 (reads of this peptide / all reads for the bait, averaged over …
55 | chain 1 H12T | 0.00036 average fractional NGS count over selection days 2 and 3 (reads of this peptide / all reads for the bait, averaged over …
56 | chain 1 H12Q | 0.000843 average fractional NGS count over selection days 2 and 3 (reads of this peptide / all reads for the bait, averaged over …
57 | chain 1 H12G | 0.0011 average fractional NGS count over selection days 2 and 3 (reads of this peptide / all reads for the bait, averaged over …
58 | chain 1 H9V | 0.00147 average fractional NGS count over selection days 2 and 3 (reads of this peptide / all reads for the bait, averaged over …
59 | chain 1 H9R | 0.00234 average fractional NGS count over selection days 2 and 3 (reads of this peptide / all reads for the bait, averaged over …
60 | chain 1 H9S | 0.00629 average fractional NGS count over selection days 2 and 3 (reads of this peptide / all reads for the bait, averaged over …
61 | chain 1 H9A | 0.00146 average fractional NGS count over selection days 2 and 3 (reads of this peptide / all reads for the bait, averaged over …
62 | chain 1 H9K | 0.0135 average fractional NGS count over selection days 2 and 3 (reads of this peptide / all reads for the bait, averaged over …
63 | chain 1 H9I | 0.00113 average fractional NGS count over selection days 2 and 3 (reads of this peptide / all reads for the bait, averaged over …
64 | chain 1 H9N | 0.00523 average fractional NGS count over selection days 2 and 3 (reads of this peptide / all reads for the bait, averaged over …
65 | chain 1 H9G | 0.00212 average fractional NGS count over selection days 2 and 3 (reads of this peptide / all reads for the bait, averaged over …
66 | chain 1 H9T | 0.00161 average fractional NGS count over selection days 2 and 3 (reads of this peptide / all reads for the bait, averaged over …
67 | chain 1 T13Y | 0.00269 average fractional NGS count over selection days 2 and 3 (reads of this peptide / all reads for the bait, averaged over …
68 | chain 1 T13G | 0.00624 average fractional NGS count over selection days 2 and 3 (reads of this peptide / all reads for the bait, averaged over …
69 | chain 1 T13D | 0.00412 average fractional NGS count over selection days 2 and 3 (reads of this peptide / all reads for the bait, averaged over …
70 | chain 1 T13R | 0.00097 average fractional NGS count over selection days 2 and 3 (reads of this peptide / all reads for the bait, averaged over …
